Conditions in all cases: remark: other sources report otherwise
For assay [1], the target named is recombinant homotrimeric HA, A/California/4/09 H1N1 (Influenza A virus A/California/4/09 (H1N1)). The assay is described as follows: trimeric HA microarray, transfection set 5.
The target in assay [2] is recombinant homotrimeric HA, A/Indonesia/5/05 H5N1 (Influenza A virus A/Indonesia/5/05 (H5N1)). The assay is described as follows: trimeric HA microarray, transfection set 5.
Assay [3] deals with T1, recombinant homotrimeric HA, A/Japan/305/57 H2N2 (Influenza A virus A/Japan/305/57 (H2N2)). The assay is described as follows: trimeric HA microarray, transfection set 5.
For assay [4], the target named is T2, recombinant homotrimeric HA, A/Solomon Islands/3/06 H1N1 (Influenza A virus A/Solomon Islands/3/06 (H1N1)). The assay is described as follows: trimeric HA microarray, transfection set 5.
The target of assay [5] is T3, recombinant homotrimeric HA, A/South Carolina/1/18 H1N1 (Influenza A virus A/South Carolina/1/18 (H1N1)). The assay is described as follows: trimeric HA microarray, transfection set 5.
In assay [6] the target is recombinant homotrimeric HA, A/Vietnam/1203/04 H5N1 (Influenza A virus A/Vietnam/1203/04 (H5N1)). The assay is described as follows: trimeric HA microarray, transfection set 5.
In assay [7] the target is T4, recombinant homotrimeric HA, A/Wisconsin/67/05 H3N2 (Influenza A virus A/Wisconsin/67/05 (H3N2)). The assay is described as follows: trimeric HA microarray, transfection set 5.
In assay [8] the target is T5, recombinant homotrimeric HA, A/swine/Ontario/01911-2/99 H4N6 (Influenza A virus A/swine/Ontario/01911-2/99 (H4N6)). Put plainly: trimeric HA microarray, transfection set 5.
For assay [9], the target named is recombinant soluble homotrimeric HA of A/northern shoveler/California/HKWF115/07 (Influenza A virus A/northern shoveler/California/HKWF115/2007). Put plainly: microarray, BCC supernatant IgG, trimeric HA.
Assay [10] has as its target recombinant homotrimeric HA, A/Hong Kong/1073/99 H9N2 (Influenza A virus A/Hong Kong/1073/99 (H9N2)). The assay is described as follows: trimeric HA microarray, transfection set 2.
In assay [11] the target is T1, recombinant homotrimeric HA, …. Put plainly: trimeric HA microarray, transfection set 2.
Assay [12] addresses recombinant homotrimeric HA, A/Netherlands/219/03 H7N7 (Influenza A virus A/Netherlands/219/03 (H7N7)). Put plainly: trimeric HA microarray, transfection set 2.
For assay [13], the target named is T2, recombinant homotrimeric HA, A/Solomon …. The assay is described as follows: trimeric HA microarray, transfection set 2.
Assay [14] concerns the target T3, recombinant homotrimeric HA, A/South …. The assay is described as follows: trimeric HA microarray, transfection set 2.
In assay [15] the target is T4, recombinant homotrimeric HA, …. The assay is described as follows: trimeric HA microarray, transfection set 2.
Assay [16] concerns the target T5, recombinant homotrimeric HA, …. Put plainly: trimeric HA microarray, transfection set 2.

B1: TCN-553 (5261_C18) (antibody, V domains shown)
VH: QVQVVQSGTEVKKPGSSVKVSCQTSGGRFMSYAITWVRQAPGQGLEWMGGIVPVFGTANYAQKFQGRVTITTDDSTRTAYMELSSLRSEDTAVYYCGFRYGSGYGFDSWGQGTLVTVSS
VL: EIVLTQSPGTLSLSPGERATLSCRASQSVSSSYLAWYQKKPGQAPRLLIYGASTRATGIPDRFTGSGSGTDFTLSISRLEPEDFAVYYCQHFGTSVFTFGGGTKVEIK
Turning to B1, the Trimeric HA Binding RLU was determined as 23300 RLU in assay [1]; 31200 RLU in [2]; 39800 RLU in assay [3]; 49600 RLU in assay [4]; 41300 RLU in assay [5]; 19200 RLU in assay [6]. Also, the Trimeric HA Binding RLU in assay [7] stood at 25200 RLU; in assay [8], 12200 RLU.

B2: TCN-546 (5089_L08) (antibody, V domains shown)
VH: QVQLQQWGAGLLKPSETLSLTCGVYGGSLSDYYWSWIRQPPGKGLEWIGEINHSGGTNYNPSLKRRVTISVDTSKKQFSLKMNSVTAADTAVYYCARGTDPDTEVYCRAGNCAAFDFWGQGTLVTVSS
VL: EIVLTQSPGTLSLSPGERATLSCRASHFVIGRAVAWYQQKPGQAPRLLIYGASSRATGIPDRFSGSGSGTDFTLTISRLETEDFAVFYCQHYGSSPRYAFGQGTKLEIK
Consider B2, for which the Trimeric HA Binding RLU in assay [1] was found to be 1080 RLU; in assay [2], 40900 RLU; in [3], 1730 RLU; in assay [5] it was 955 RLU; in [7], 28500 RLU. Also, the Trimeric HA Binding: RLU in [9] was 1350 RLU.

B3: TCN-526 (5084_C17) (antibody, V domains shown)
VH: EVLMVESGGGLVQPGGSVRLSCVASGFSFSSHWMTWVRQAPGKGLEWVANIEDDGGDKYYVDSVKGRFIISRDNAKNSVYLQMNSLRAEDTAVYFCARGSGSSDRSDYDPHYYYYLDVWGKGATVTVSS
VL: DIQLTQSPSSLSASVGDRVTITCRASQSISRYLNWYQQKPGKAPKLLLFAASTLLDGVPSRFSGSGSGTDFTLTISSLQPEDFATYYCQRNHSPSWTFGQGTRVEIK
In the case of B3, the Trimeric HA Binding RLU was 490 RLU in assay [10]; 3590 RLU in [11]; 5660 RLU in [12]; 1470 RLU in assay [13]; 2310 RLU in [14]; 27800 RLU in [15]. In assay [16], the Trimeric HA Binding RLU came out at 3490 RLU.

B4: TCN-557 (5081_A04) (antibody, V domains shown)
VH: QVQLVQSGAEVKKPGASVKVSCKASGHTFTGYYIHWVRQAPGQGLEWMGWINPDSGATSSAQNFQGRVTMTGDTSSSTAYMELSRLSFDDTAVYYCARVLFTSPFDFWGEGTLVTVSS
VL: QAVVTQEPSLAVSPGGTVTLTCGSSTGAVTRGHYPYWFQQKPGQAPRALIYDSAGNRHSWTPARFSGSLLGGKAALTLSGAQPEDEAEYYCLLSYSGVWVFGGGTKLTVL
Take B4: the Trimeric HA Binding RLU in assay [1] is 44400 RLU; in assay [2] it was 22200 RLU; in assay [3], 27300 RLU; in assay [4], 27000 RLU; in [5], 44900 RLU; in assay [6], 21300 RLU. For the same molecule, the Trimeric HA Binding RLU in [7] is 46100 RLU; in [8] it was 41500 RLU.

B5: TCN-540 (5060_F05) (antibody, V domains shown)
VH: QVQLVQSGGGVVQPGRSLRLSCAASGFTFSSYAMHWVRQAPGKGLEWVAIISYDGNDQYYTDSVKGRFTISRDSSKVYLQMHRLRPEDTAVYYCAKEFETSGYFHGSFDYWGQGILVTVSS
VL: QSALTQPASVSGSPGQSITISCTGTSSDVGGYNYVSWYQQHPGKAPKLLIYEVTNWPSGVSNRFSGSKSGNTASLTISGLQAEDEADYYCSSYAGSSTWVFGGGTRVTVL
Regarding B5, the Trimeric HA Binding RLU in assay [1] came to 984 RLU; in assay [2] it was 2570 RLU; in [3], 47900 RLU; in [4] it was 1180 RLU; in [5] it was 1360 RLU; in assay [7], 53000 RLU.

B6: TCN-537 (3194_D21) (antibody, V domains shown)
VH: QVQLQQWGSGLLKPSETLSLTCAVYGGSFRDDYWTWIRQPPGKGLEWIGEINHSGRTNYNPSLKSRVTISVDTSLKQFSLKVISVTAADTAVYYCARGTSHVSRYFDWLPPTNWFDPWGQGTQVTVSS
VL: DIVLTQSPGTLSLSPGERATLSCRASQSVSSSYLAWYQQKPGQAPRLVMYGAATRATGIPDRFSGSGSGPDFTLTISRLEPEDFAMYYCQQYGNSPITFGQGTRLEIK
As for B6, the Trimeric HA Binding RLU in [1] was found to be 33800 RLU; in [3], 16200 RLU; in [5] it was 46800 RLU; in assay [7], 1940 RLU; in assay [8], 3280 RLU.

B7: TCN-558 (5248_H10b) (antibody, V domains shown)
VH: QVQLVQSGSEVKKPGTSVKVSCTASGSVFTNYGISWVRQAPGQGLEWMGGIIPLFGAAKYAQKFQGRVTITADESTKTVYMELSRLTSKDTAIYFCAKAPRVYEYYFDQWGQGTPVTVSS
VL: EIVMTQFPATLSVSPGERVTLSCRASQSVSNNLAWYQQKPGQPPRLLIYDASTRATGVPAKFSGTGSGTEFTLSISSLQSEDFAVYYCQQYHNWPPSYSFGLGTKLEIK
In the case of B7, the Trimeric HA Binding RLU in assay [1] was 20200 RLU; in assay [3], 34400 RLU; in assay [4], 36100 RLU; in assay [5] it was 40700 RLU; in assay [7] it was 26600 RLU; in [8], 10000 RLU.

B8: TCN-550 (5096_F06) (antibody, V domains shown)
VH: QVQLQESGPGLVKPSETLSLTCTVSGASINSHYWSWIRQPPGKGLEWIGYVYYSGSTTYNPSLKSRVTLSVDTSKNQFSLNLSSVTAADTAFYYCARHPYDVLTGSGDWFDPWGQGTLVTVSS
VL: SYVLTQAPSVSVAPGQTARITCGGNAIGSKKVHWYQHKAGQAPVLVVYDDTDRPSGIPERFSGSNSWSTATLTINRVEAGDEADYYCQVWDFTIDHVVFGGGTKLTVL
For the molecule B8, the Trimeric HA Binding RLU in assay [1] was determined as 628 RLU; in assay [2] it was 9000 RLU; in assay [3] it was 731 RLU; in [4], 758 RLU; in [5] it was 1010 RLU; in assay [7], 37800 RLU.

B9: TCN-542 (5079_A16) (antibody, V domains shown)
VH: QVQLQESGPGLVKPSQTLSLTCTVSGGSISSGNYYWNWVRQHPGKGLEWIGYIYYRGSTFYNPSLKSRVTISIDTSKNQFSLRLSSVTAADTAVYYCAKDTRSSLDNYQYGMDVWGQGTTVTVSS
VL: QTVVTQEPSLTVSPGGTVTLTCASSTGAVTSSYFPNWFQQKPGQAPRPLIYSTTIRHSWTPARFSGSLLGGKAALTLSGVQPEDEADYYCLLYSGGDPVAFGGGTKLTVL
On to B9, for which the Trimeric HA Binding RLU was found to be 5180 RLU in assay [3], 1120 RLU in [5] and 14300 RLU in assay [8]. Also, the Trimeric HA Binding: RLU in assay [9] is 900 RLU.

B10: TCN-552 (5249_I23) (antibody, V domains shown)
VH: QVQVVQSGAEVKKPGSSVRVSCQASGGTFMNYAIIWVRRAPGQGLEWMGGIIPVFPTPNYAQMFQGRVTISTDESRSTSFLELTNLRYEDTAVYYCARRIYHGGNSGFDFWGQGTLVTVSS
VL: EIVLTQSPATLSLSPGERATLSCRASQSVGNYLAWYQQKPGQAPRLLIYDSSNRAPGIPARFSGSGSGTDFTLTISSLAPEDFAVYYCQQRSKWPPMYSFGHGTKLEIK
For B10, the Trimeric HA Binding RLU came to 23500 RLU in assay [1]; 43400 RLU in assay [2]; 52000 RLU in assay [3]; 48600 RLU in [4]; 37400 RLU in [5]; 18500 RLU in [6]. Moreover, the Trimeric HA Binding RLU in assay [7] is 18500 RLU; in assay [8], 9080 RLU.

B11: TCN-554 (5277_M05) (antibody, V domains shown)
VH: QVQLVQSGADLKKPGASVKVSCKASGYTFTDYYIHWVRQAPGQGLEWMGWINPESGDTKYAQKFQGRVTMTRDTSITTAYMELGRLRSDDTAVYYCARDVSTTWSWFAPWGQGTLVTVSS
VL: DIVMTQSPDSLAVSLGERATINCRSSQSIFHNSNNENYLAWYQQKPGQPPKLLIYWASTRESGVPDRFSGSGSGTDFTLTISSLQAEDVAVYFCQQYYNAPLTFGGGTKVEIK
As for B11, the Trimeric HA Binding RLU in [3] was determined as 2620 RLU; in assay [4], 992 RLU; in [5], 1260 RLU; in [7] it was 25300 RLU; in assay [8], 5400 RLU.

These data come from patent publication US20120207760A1.
